Assay results: publication PMC6745501, “Plant photoreceptors and their signaling components compete for COP1 binding via VP peptide motifs” (The EMBO Journal, 2019)

B1: Arabidopsis COP1^349–675 WD40 domain (domain or fragment, UniProt P43254 349-675, looked up)
chain: TFTRYSRLRVIAEIRHGDIFHSANIVSSIEFDRDDELFATAGVSRCIKVFDFSSVVNEPADMQCPIVEMSTRSKLSCLSWNKHEKNHIASSDYEGIVTVWDVTTRQSLMEYEEHEKRAWSVDFSRTEPSMLVSGSDDCKVKVWCTRQEASVINIDMKANICCVKYNPGSSNYIAVGSADHHIHYYDLRNISQPLHVFSGHKKAVSYVKFLSNNELASASTDSTLRLWDVKDNLPVRTFRGHTNEKNFVGLTVNSEYLACGSETNEVYVYHKEITRPVTSHRFGSPDMDDAEEEAGSYFISAVCWKSDSPTMLTANSQGTIKVLVLAA
notes: COP1 (CONSTITUTIVELY PHOTOMORPHOGENIC 1) E3 ubiquitin ligase, Arabidopsis, WD40 domain, residues 349-675; also called COP1 WD40 domain; COP1 WD40; not shown: His10, N-terminal, cleaved; Twin-Strep, N-terminal, cleaved

Tests used:
Details in all cases: both partners purified
[1] = molecular target: T1, full‐length UVR8 (recombinant) (Arabidopsis, UniProt Q9FN03 1-440); assay: not stated; non-photoactivated (ground-state) full-length UVR8 versus COP1 WD40; Appendix Fig S4A, not shown (ITC or GCI)
T1 construct: UV … LOCUS 8 (UVR8) UV-B photoreceptor, Arabidopsis, full length; Dimer in the ground state; monomerized by 60 min UV-B on ice where the assay says so; not shown: His10, N-terminal, cleaved; Twin-Strep, N-terminal, cleaved
T1 sequence (looked up): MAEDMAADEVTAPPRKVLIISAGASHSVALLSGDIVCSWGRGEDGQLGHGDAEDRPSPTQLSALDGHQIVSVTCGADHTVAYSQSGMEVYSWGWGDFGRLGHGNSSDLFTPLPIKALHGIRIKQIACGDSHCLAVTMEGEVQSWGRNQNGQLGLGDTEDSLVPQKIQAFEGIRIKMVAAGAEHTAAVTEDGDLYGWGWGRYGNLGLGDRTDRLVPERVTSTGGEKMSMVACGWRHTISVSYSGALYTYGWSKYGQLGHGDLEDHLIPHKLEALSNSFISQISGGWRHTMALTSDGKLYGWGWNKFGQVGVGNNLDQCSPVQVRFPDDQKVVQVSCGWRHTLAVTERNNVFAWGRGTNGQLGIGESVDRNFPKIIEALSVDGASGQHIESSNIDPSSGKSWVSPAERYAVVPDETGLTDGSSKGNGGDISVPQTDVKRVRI

[2] = molecular target: T2, UVR8^12–381 β‐propeller core (Arabidopsis, UniProt Q9FN03 12-381); assay: not stated; UV-B-activated UVR8 forms versus COP1 WD40 and its mutants; Appendix Figs S4B, S4C, S6A, S6B, not shown (ITC or GCI)
T2 construct: also called UVR8 β‐propeller core; UVR8 core domain; not shown: His10, N-terminal, cleaved; Twin-Strep, N-terminal, cleaved
T2 sequence (looked up): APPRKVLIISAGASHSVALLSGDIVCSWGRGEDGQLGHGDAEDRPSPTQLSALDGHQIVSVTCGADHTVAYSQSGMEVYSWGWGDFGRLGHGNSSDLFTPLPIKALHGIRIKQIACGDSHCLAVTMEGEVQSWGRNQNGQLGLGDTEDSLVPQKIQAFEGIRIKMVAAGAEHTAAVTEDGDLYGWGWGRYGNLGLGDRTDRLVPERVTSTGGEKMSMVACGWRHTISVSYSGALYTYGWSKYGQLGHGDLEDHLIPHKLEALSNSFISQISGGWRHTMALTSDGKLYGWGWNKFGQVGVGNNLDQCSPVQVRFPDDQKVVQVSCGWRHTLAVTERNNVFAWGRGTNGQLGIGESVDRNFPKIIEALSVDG

[3] = molecular target: T3, UVR8^ValPro/AlaAla (recombinant) (Arabidopsis, UniProt Q9FN03 1-440, ValPro/AlaAla); assay: SEC; analytical SEC, Superdex 200 Increase 10/300 GL; ~4 μM of each protein mixed; UVR8 form pre-monomerized by UV-B; 150 mM NaCl, 20 mM HEPES 7.4, 2 mM BME; fractions on Coomassie-stained SDS-PAGE
T3 construct: UVR8, Arabidopsis, Val-Pro of the C-terminal VP motif mutated to Ala-Ala; compared with the wild type (full-length) protein, monomer ~50 kDa; also called the mutant photoreceptor; not shown: His10, N-terminal, cleaved; Twin-Strep, N-terminal, cleaved
T3 sequence (looked up): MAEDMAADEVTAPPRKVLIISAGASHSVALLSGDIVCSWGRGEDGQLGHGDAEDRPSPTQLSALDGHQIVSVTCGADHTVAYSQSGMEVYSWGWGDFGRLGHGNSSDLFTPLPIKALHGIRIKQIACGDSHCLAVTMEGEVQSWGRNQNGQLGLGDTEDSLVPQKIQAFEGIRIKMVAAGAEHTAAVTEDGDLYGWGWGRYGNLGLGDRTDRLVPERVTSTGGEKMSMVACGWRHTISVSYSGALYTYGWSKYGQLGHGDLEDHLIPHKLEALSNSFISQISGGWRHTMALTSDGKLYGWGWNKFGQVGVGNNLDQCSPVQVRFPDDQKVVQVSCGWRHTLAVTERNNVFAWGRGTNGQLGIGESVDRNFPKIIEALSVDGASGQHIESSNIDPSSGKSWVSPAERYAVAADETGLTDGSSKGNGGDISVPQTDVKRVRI

[4] = molecular target: B1; assay: ITC; VP peptide (titrant, 500-3,000 μM) injected into COP1 WD40 in the cell at about 10-fold lower concentration; 150 mM NaCl, 20 mM HEPES 7.4, 2 mM BME; 25°C; one-site binding model
[5] = molecular target: T4, COP1^349–675,Lys422Ala WD40 domain (Arabidopsis, UniProt P43254 349-675, Lys422Ala); assay: as above
T4 construct: COP1, Arabidopsis, WD40 domain, residues 349-675, Lys422Ala; also called COP1^Lys422Ala; not shown: His10, N-terminal, cleaved; Twin-Strep, N-terminal, cleaved
T4 sequence (looked up): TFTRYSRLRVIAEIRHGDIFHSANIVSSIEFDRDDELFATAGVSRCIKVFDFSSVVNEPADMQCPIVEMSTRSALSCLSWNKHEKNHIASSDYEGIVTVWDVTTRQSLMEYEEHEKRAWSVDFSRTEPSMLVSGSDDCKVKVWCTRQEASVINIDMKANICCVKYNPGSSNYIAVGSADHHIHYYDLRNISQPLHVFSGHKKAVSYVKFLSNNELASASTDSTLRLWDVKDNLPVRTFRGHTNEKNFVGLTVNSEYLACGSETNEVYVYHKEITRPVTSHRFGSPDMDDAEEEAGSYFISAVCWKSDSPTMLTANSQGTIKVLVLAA

[6] = molecular target: T5, COP1^Tyr441Ala WD40 domain (Arabidopsis, UniProt P43254 349-675, Tyr441Ala); assay: as above
T5 construct: COP1, Arabidopsis, WD40 domain (mutant of COP1 349-675), Tyr441Ala; not shown: His10, N-terminal, cleaved; Twin-Strep, N-terminal, cleaved
T5 sequence (looked up): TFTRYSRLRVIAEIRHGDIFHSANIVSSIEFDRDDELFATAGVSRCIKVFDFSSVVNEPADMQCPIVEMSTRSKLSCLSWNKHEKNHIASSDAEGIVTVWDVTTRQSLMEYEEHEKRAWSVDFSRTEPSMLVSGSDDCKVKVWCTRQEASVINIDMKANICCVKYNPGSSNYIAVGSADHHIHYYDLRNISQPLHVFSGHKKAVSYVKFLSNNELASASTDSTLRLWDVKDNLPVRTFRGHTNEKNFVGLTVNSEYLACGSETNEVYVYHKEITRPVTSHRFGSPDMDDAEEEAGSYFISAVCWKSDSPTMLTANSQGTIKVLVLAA

## B1
[1]
  Kd: ~1000 nM
[2]
  Kd: ~500 nM
[3]
  binding result: binds

B2: HY5^39–48 VP peptide (peptide, UniProt O24646 39-48, looked up)
peptide: EIRRVPEFGG
notes: ELONGATED HYPOCOTYL 5 (HY5) bZIP transcription factor, residues 39-48 (holds Arg41, Glu45); also called HY5 VP peptide; HY5 peptide; source: synthetic peptide (Peptide Specialty Labs GmbH)
[4]
  Kd: ~20 µM
  fold stronger binding than UVR8^406–413: ~8 fold
[5]
  stoichiometry N: 0.83
[6]
  stoichiometry N: 0.92
